Assay results as given in a protein production outcome set (Wang et al. 2014).

Experiment: label from the status in PepcDB records
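Note: failed if final PepcDB status was selected cloned or expressed and not failed if soluble or beyond.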

| Sequence | protein production |
| --- | --- |
| MYANKVKKIAAVHDLSGMGRVSLTVVIPILSSMGFQVCPLPTAVLSNHTQYPGFSFLDLTDEMPKIIAEWKKLEVQFDAIYTGYLGSPRQIQIVSDFIKDFRQPDSLIVADPVLGDNGRLYTNFDMEMVKEMRHLITKADVITPNLTELFYLLDEPYKADSTDEELKEYLRLLSDKGPQVVIITSVPVHDEPHKTSVYAYNRQGNRYWKVTCPYLPAHYPGTGDTFTSVITGSLMQGDSLPMALDRATQFILQGIRATFGYEYDNREGILLEKVLHNLDMPIQMASYELI | not failed |
| LEMKGKRMSVTAVMRELEKEENLYRRSGGGITLSGGEPLAQPEFARELLKACKAKGWHTAIETSGFTTKAVIDEVFPYVDLALTDIKAIDPEIHERNTGVNNRVILENLLRISFLTKVVVRIPVIPGVNDNSQEIHNIAEFARLMQNVDTIHLLPYHSFGENKYNLLGRQYPMGDTKSIEESQMAELKAMVESLGFNCHIGG | failed |
| MHPVLIFLFALIAILLFTAKFRLHPFLSLVLVSLLTGILAGEPIRTIEAVTEGLGSVFSRFAIIITSGSIIGLLLQKTGGMSLIASDITRFFKNPLLALSFLGFLFSVPTMCYILAYVIFIPIAKELSSRFNYPPISTATALALGAVASFNLVYPSPVIISAAEELSANRDMLILLGFLTAVPTSFSGYLYARSLGKAEVSGMNEGGVIREKTIVKEKKDLSQENGALQRTENRKPGRFEAYAPIFIPLFLILFEAVLNNPNTLFTFLGNPNVALLIGVLLSIFSGRVLGLPMIRVQVEKAIKRSGVVLLDLCGGGALGATLAMTGAGEALGKFFLQFNLPHILVPFLVAAALQTVQGSRVVTMLVAPSLLLPLVPELGLPPEILILSMASGTFMISHVNDPFFWIFGELAELTPSEVFRSNTLGNALMGVVSFLIVSGIYFFFY | failed |
| PSFNLGYIGLNNRNEYLKNPKVRQAISMAINRRAVVDAFWSGLGRTDTSIVPPALGWATSSKVPADYKFDPAAAKKLLAEAGYPNGFTLDFWYMPITRSYFPQPKASAEAMAADLADVGIKVNLKTEDWAKYLDDLFAGRLSMFQIGLIGDYGDPDYFYGALYNPTSTNDIGWNAPAELDTLLQQARSGLTRQARAQAYARIHELTYNAGYRIPLVHSQ | failed |
| MDPESIMAADGTDSAPANGGLAMENVCVKENGAVSVETVDTTSESQNENSANSSTLDTIEHVKEAAEGTQVEHVDDSKCMKGEKAQRKPRHEKLSGGKNNSSVHIKKSKEGKSADAKVAASNGSVAPNVQTTNPLKSKSFNGREAQVTKQGKHDSAPAESADGEKVKPKSQKKQAHETSEDDTQSSNSPKADDGKPRKVGALPNYGFSFKCDQRAEKRKEFYVKLEEKTHAKEEEINSMQAKSKETQEAELRMLRKSLNFKATPMPSFYQEPQPPKTELKKIPPTRPKSPKLGRKKTASGADSEETQTPRLGRLSLDERASKDNPTAKGIMPTVDLKKQPVRKSLPRLPSQKTVLPDGKPAPAKAAIIPAKVRPEKKKLEKDAETVNQTSHPTEEEAQVTVSSNADVEDSHETVSPRMNEDRADKSIEVSEAVAVEH | failed |
| MPRAPRCRAVRSLLRSHYREVLPLATFVRRLGPQGWRLVQRGDPAAFRALVAQCLVCVPWDARPPPAAPSFRQVSCLKELVARVLQRLCERGAKNVLAFGFALLDGARGGPPEAFTTSVRSYLPNTVTDALRGSGAWGLLLRRVGDDVLVHLLARCALFVLVAPSCAYQVCGPPLYQLGAATQARPPPHASGPRRRLGCE | failed |
| MSKIFVNPSAIRAGLADLEMAEETVDLINRNIEDNQAHLQGEPIEVDNLPEDMGRLHLDDGKSPNPGEMAKVGEGKYREDFQMDEGEDPSLLFQSYLDNVGVQIVRQIRSGERFLKIWSQTVEEIISYVAVNFPNPPGKSSEDKSTQTTGRELKKETTPTPSQRESQSSKARMAAQTASGPPALEWSATNEEDDLSVEAEIAHQIAESFSKKYKFPSRSSGILLYNFEQLKMNLDDIVKEAKNVPGVTRLARDGSKLPLRCVLGWVALANSKKFQLLVESNKLSKIMQDDLNRYTSC | not failed |
| MQKLVEQVWDYTKHAKFYSYRPNYAPKTIDMLISLVGKKDIKVADIGAGTGNLSIMLLERGCKVVSVEPNDAMREIGIERTKDQKIDWVRATGLNSTLQNSEFDWVTFGSSFNVMDRNEALEEAHRLLKSEGYFSCMWNHRDLNDPVQKIAEDTIVEFVPNYTRGTRREDQRPIIESRKDLFDNIVYIEEDFYFHQSIENYINAWKSVKNPYWDLETDEGNELFNKISNKISQRLPKEFSIKYTTRCWSAKKI | failed |
| MYPEKEYEELIKKIKTKVKEELNKNSKANVSGLNLDTAKRLADAAVKKAGEMGVNVAVAVMDIHGNMILFNRMDDSVLAAIEVAPKKAYTSAALRIPSSEVLKGGFDKLVETMEGKIAAFGGGLPVRSNGIFLGALGVSGGTSEEDIKIAEYAVNAVFG | failed |
| MGSVPMGHKRISFHIVQTTRSGDRSASRTSVEEASDQGPSPWTTADSAIFQLRWSCVWRRAVSTSANIEDGADAAFVASPPPFGAGVADLYQALLVPILFEPYALEMAIVAERSKPVSVLEVAAGTGALTRALRAKLDPAAEIVATDLSQAMIDVGAPSVTMSRTHWMHADAQDLPFAPLMFDLVVCQFGVMFFPDKPKAYHEAKRVLRSGGRLLFSTWDSLAANDFARCVDECLTGLFPSDPPDFLGRLPYSYFDPSLIKAEVSSAGFKAVSCERLELASIAATSQDVATAFCRGTPLSGEIEWRAPERMSEIVDEVAERVASRYGARPCGSMSALVVSGRAP | failed |
| MGRKRKHSETEAPAPVKKSDEPAPDRPKRTLLGWKDKSEGEAEKAKALTSSGFKNKEKVLVTCSRRISFRYRSLMLNIVSLLPHCKKDSKVEAKSSKGATLNELIELKNSNSCLFFECRKHKDLYMWMVKSPNGPSVKFLVKAVHAMEEMKLTGNHLKGSRPLLTFSSNFDKDAHWKLLKEMLTQVFGIPKEHRKSKPYHDHVFVFSIVDEHIWFRNYQISVPHNESDKIAKGGLDKMTLIEVGPRFCLNPIKIFAGSFGGPTLYENPLYVSPNQIRALEKRNKAGKFAKKIKAKTRKKMHELSNPLEPDEFADMWKDDE | failed |
| MPAPKKALRRSLTVTSAALTALALLSPAALAAPSPSTSPSATPPASMSGVGGARLGKPGTQVDLAGGAPVLPKDLTARSWIVADAESGDVLAAHNAHWELAPASTLKMLFADTLLPKWPKTTKRKVQVSDLAGIGSGSSMVGIKEEETYTVHDLWLGVFLRSGNDAVHVLSAMNDGVEKTVADMNAHAKELQAGDTTVVSPDGYDMPGQVSSAYDLTLFARSGLQKKDFREYASTVRAKFPGETKKDKKGKTSREPFEIQNTNRLLAGDADVEVYPGIAGVKNGYTTNAGNTFTGVAEQGGKVLLVTVMHPAEDKHNEVYKETARLFDWGFRAAGKVRPVGELVRPRSATAASPSAEASGEAGGTGKGGAGTKPVAGAAAGDGAGGAGVAAGIAAGVLALLAGGAFLINRKWPLPDLVRRRTRP | failed |
| MSLEEWIKADSLEKADEYHKRYNYAVTNPVRRKILRMLDKGRSEEEIMQTLSLSKKQLDYHLKVLEAGFCIERVGERWVVTDAGKIVDKIRG | not failed |
| MKIAALYDIHGNYPALKEVLKQVKKLSPDLVVLGGDLIAGPMPLETLSLLKHVSTTFKTVGIMGNNDQDIVDIYAKKRVGLSRKATEQLTWIANQLSYKQVSFLRNLLPSISIGNYFFCHAVKNDNTTVFSPQQNKAYIETLFKGVQESYIICGHTHIQFELSLPNKKIINAGSIGMPFSNQFGAQWLWLDDNRIEYKRTIFNQQAAIQLISQTEYPFKNEFIANNLRSTISLSQGYSILNTLIRAQNAQHDLSLEHHHHHH | not failed |
| MEPLTALAQSLGLAFASGISAYAAAAFVGLAGHLGWIGPLPGALGVLTDPWVFGTAGALALVEALAMLVPGIATAWEAIHTAIRPFAAAALAVLATWGEPRLAVVAALLGGALGLATHATKLGLRATIDTSPEPVTNAAATTGELGVVAALAWAIWAHPWIALAAALVLLTALLYVVRALWRTVARAIAALFSPPTAPGS | failed |
| MKNRTKSRWKKIVLGIGLFLAVLVIGLTIFIKNSTYQATDSALKISQSATQEKNYDYYTNGQKNDTALIFYPGALVAPASYSEWAQEVATKGYDVYVVHFPLNLAVLAPNAAEQIIKDHPQQNFVLAGHSLGGVMASRFVAENEQRIKGMIYLASYPDEKGALNKKNLPVLSITATNDGVLNWTSYQKAKQFLPKDTQYVSIEGGNHAGFGNYGVQKGDSKATISNEQQQTEISQLIVAWLQSRPNK | failed |
| MKQEETLTKVKVAEVTHSIFYAPLYVAESKGFFKEEGLDVDVNTTWGGDKTMTSLLSNGSDIALVGSETSIYVEAQGAKDPVINFAQLTQTDGTFLVAREDVEHFDWDQLKGKTFLGQRKGGMPQMVGEYVLNKHKIDPHKDIDLIQNIDFANIANAFASGTGEYVQLFEPQLLSLRKKASAISWLHSEKNQERFLIRLLWRNKAILEHHHHHH | failed |
| FLEVNYYSRVLGMNRVMNVLLPEESDHNPNWTNDSLKDLPVLYLLHGMSGNHFDWQRKSDIERLLRQTKLAVIMPAADLAWYTNTDYGMNYFDAISQELPRKVASLFPQISTKRKKHFVAGMSMGGYGAFKLAFSSSYFSYAASLSGTLISSLNYPGFLDMEKQAYWKGIFGDLDKFSGSKNDIFELAKRQSNTGIELPKLYAWVGQQDFFYGANEKAIPRLRKMGYDVSYETNPGDHEWYYWSKYIENILQWLPINYQAEKRLS | failed |
| LGRITQHIAIKQDITEQVHRFNQLKISEERYRNLMNAVADGIFIHNLQGAFLEVNEAACLSLNYSREELINSYVWDIEVGFSQESLNQLWENVQKGPINTEGMHRRKDGTTFPVDVRLAVFNATGEKLVLAIVRDI | failed |
| MAPLRTKAVEVLQRNSRGAFTVPAHGLYPYQWLWDSAFIALGWTQVDWERAWQELLCLFDYGQGPDGMLPHIVFHEQSRDYFPGPDVWGREARAQPATSGITQPPVVATVVRYLYEKDPDRDRARERARYLFPKLLAFHRWLYHARDPYRTGLVVIVHPWESGMDNSPAWDKPLSRVPVENLPPYERRDVKHVNPEERPRKEDYDRYLSLLYLFRRLEYDPREIYRQSPFKVVDVGFNAILQRANRDLYALAVLLQEDPYEIEEWIVRGEVGLEALWDREAGFYFSWDLVAGEPIAVKTSAGFLPLFAGTPHQGRASLLAQEAERWGEKARYLLPSVDPTSPFFEPGRYWRGPVWINVNWMVAEGFRDYGFAALAARLKADALALMEREGFREYYDPLTGQGRGGEGFSWSAALALFWTR | not failed |
| MMFDEFKRTILREDIKYEIFRKFFHIFSLIVLVFYRINFWIGLFSNILFMILYLSSEIFRITEKKILFFKNISNIILKSRKILPNRVSFSPVFLFLGILISYCLSMHPFNYIGIFSVCLGDGFASLIGKLIPSFKLVNGKTISGSLVVFCVTFFSYYYFFPYLTVALILGILAVLVELFDAANYDNLFLPLVVSASSYFLTSFFYSQ | failed |
| MNRILQQVANQYWFRVSLTVICCLATICLGVHQSYVWFSVSACLLILSIIWQVRLYRLHIKQVLFMIDALENNDSAFRFPEESGTPESKQINRALNRVGHILYNVKAETAQQEKYYKLILDFVSTGLLVLNDNGAVYQKNKEALRLLGLNVFTHVRQLSKVDATLMEKIESCCSGDKLQVVFHNERGTVNLSIRVSEINVHKEHLRILALNDINIELDEKEIDSWIRLTRVLTHEIMNSVTPITSLSDTLLSMVEDKDEEISHGLQTISATGKGLLAFVESYRKFTRIPTPEPSLFYLKAFIERMVELARHQNPCDHITFHTKIDPADLILHADENLISQVVINLLKNAIQAIGDQPDGQIDIQVYCNETEEVLIEIKNNGPVIPPEIVEHIFIPFFTTKEGGSGIGLSISRQIMRLSGGSLTLLPDNKETKFILKFK | failed |
| VHVEDALTYLDQVKIRFGSDPATYNGFLEIMKEFKSQSIDTPGVIRRVSQLFHEHPDLIVGFNAFLP | not failed |
| MYQTIEGFLQSWTYETESTQKMLDVLTDESLSQEIAPGHWTLGRVAWHIVTAIPVILSGTGLKFEGETKDYPVPTSAKTIADGYRKVNTAFVEALQSEWTDKDLTTINDFFGRPMPNSIFLMTLINHQNHHRGQMTVLMRQAGLTVPGVYGPAKEEWATAGMEAPKM | not failed |
